For one sequence, Kd results are on record in the Immune Epitope Database (IEDB).

Holding throughout (conditions): source organism: Rickettsia akari str. Hartford
One assay addresses HLA-C*15:02. In words: IEDB peptide-MHC binding, purified MHC/direct/fluorescence; filed as Kd, often an IC50 or EC50 that approximates it; ≥ and ≤ were set here for values at or beyond the usual limits of such assays.
A further assay addresses HLA-B*27:03. In words: IEDB peptide-MHC binding, purified MHC/competitive/fluorescence; filed as Kd, often an IC50 or EC50 that approximates it; ≥ and ≤ were set here for values at or beyond the usual limits of such assays.
Another assay deals with HLA-B*40:01. The description is as above.
A further assay addresses HLA-B*44:02. Described as above.
The next assay has as its target HLA-A*30:01. The description is as above.
Another assay has as its target HLA-A*30:02. Described as above.
The target in a further assay is HLA-B*14:02. Described as above.
Another assay deals with HLA-B*07:02. The description is as above.
The next assay deals with HLA-B*27:05. Described as above.
A further assay concerns the target HLA-B*15:01. Described as above.

Take FTARIIIFS: the Kd in the assay with HLA-C*15:02 was ≥ 20 µM; with HLA-B*27:03, ≥ 20 µM; with HLA-B*40:01, ≥ 5 µM; with HLA-B*44:02, ≥ 5 µM; with HLA-A*30:01 it was ≥ 5 µM; in the assay with HLA-A*30:02 it was ≥ 5 µM. The Kd was ≥ 5 µM with HLA-B*14:02, ≥ 5 µM with HLA-B*07:02, ≥ 5 µM with HLA-B*27:05 and ≥ 20 µM with HLA-B*15:01.
